Assay results published in paper PMC5622320 (Nucleic Acids Research, 2017).

Biological target: T1, stFlhD4C2 (Salmonella typhimurium, UniProt P0A2R2;O52222)
T1 sequence 1: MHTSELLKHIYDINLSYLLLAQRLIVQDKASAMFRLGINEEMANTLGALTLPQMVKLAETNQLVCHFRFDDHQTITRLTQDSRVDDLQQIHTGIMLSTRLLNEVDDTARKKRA
T1 sequence 2: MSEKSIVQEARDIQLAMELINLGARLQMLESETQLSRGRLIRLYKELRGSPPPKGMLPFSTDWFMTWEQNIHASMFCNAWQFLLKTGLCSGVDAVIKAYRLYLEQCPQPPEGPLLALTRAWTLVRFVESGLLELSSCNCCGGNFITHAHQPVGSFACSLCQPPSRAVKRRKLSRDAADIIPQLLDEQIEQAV
Assay: native gel or EMSA

B1: YdiV (natural protein)
chain: MKIFLENLYHSDCYFLPIRDNQQVLVGVELITHFSSEDGTVRIPTSRVIAQLTEEQHWQLFSEQLELLKSCQHFFIQHKLFAWLNLTPQVATLLLERDNYAGELLKYPFIELLINENYPHLNEGKDNRGLLSLSQVYPLVLGNLGAGNSTMKAVFDGLFTRVMLDKSFIQQQITHRSFEPFIRAIQAQISPCCNCIIAGGIDTAEILAQITPFDFHALQGCLWPAVPINQITTLVQR
Q: Does B1 bind?
A: binds
